Data taken from patent publication US20240392024A1 (SHANGHAI CELGEN BIO PHARMACEUTICAL, published 2024).
Several values for one entry are separate records, joined by “and”; a condition that tells them apart may be missing. Equal entries are not always repeated. Each block holds one binder with its values, some of them ahead of it.

Columns and labels:
[1] = target: T1, TNFR2-His (Sino Biological, 10417-H08H, NP_001057.1 Met1-Asp257, with multi-histidine tag expressed on … (human, UniProt P20333 23-257)); experiment: ELISA, plate coated with TNFR2-His (first test)
T1 construct: range 1-257; Bought protein; also called recombinant human TNFR2 protein; TNFR2-His antigen; not shown: C-terminal multi-histidine tag
T1 sequence (looked up): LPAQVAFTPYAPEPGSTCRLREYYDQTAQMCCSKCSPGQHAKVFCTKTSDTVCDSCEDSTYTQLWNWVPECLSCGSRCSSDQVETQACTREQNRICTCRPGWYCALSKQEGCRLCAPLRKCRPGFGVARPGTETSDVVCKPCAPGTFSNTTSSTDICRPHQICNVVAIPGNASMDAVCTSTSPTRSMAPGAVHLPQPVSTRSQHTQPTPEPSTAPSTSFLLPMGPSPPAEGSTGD
Procedure, shortened: (§1)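 Antibodies were serially diluted and incubated on blocked ELISA plates coated with C-terminally His-tagged recombinant human TNFR2. Detection used an enzyme-labelled anti-IgG secondary antibody, TMB development and a microplate reader, and the dilution series gave the EC50.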

[2] = target: T1, TNFR2-His (Sino Biological, 10417-H08H, …); experiment: BLI, antibody captured on AHC probe, TNFR2 in solution
Procedure, shortened: (§2)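 Antibodies at 50 nM in Q buffer were held on antibody-capture sensors, and the sensors were then moved into recombinant human TNFR2 diluted 2-fold in Q buffer, starting from 100 nM. Q buffer was 10 mM PBS pH 7.4 with 0.02% Tween 20 and 0.2% BSA. The work used bio-layer interferometry on an Octet in Basic Kinetics mode, and Kon, koff and Kd come from these kinetic association measurements.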

[3] = target: T2, human TNFR2 on the cell membrane (human, UniProt P20333 23-461); experiment: flow cytometry on CHO-TNFR2 cells
T2 construct: whole, on cells; One molecule for all cell formats; also called TNFR2-CHO cells; CHO-TNFR2
T2 sequence (looked up): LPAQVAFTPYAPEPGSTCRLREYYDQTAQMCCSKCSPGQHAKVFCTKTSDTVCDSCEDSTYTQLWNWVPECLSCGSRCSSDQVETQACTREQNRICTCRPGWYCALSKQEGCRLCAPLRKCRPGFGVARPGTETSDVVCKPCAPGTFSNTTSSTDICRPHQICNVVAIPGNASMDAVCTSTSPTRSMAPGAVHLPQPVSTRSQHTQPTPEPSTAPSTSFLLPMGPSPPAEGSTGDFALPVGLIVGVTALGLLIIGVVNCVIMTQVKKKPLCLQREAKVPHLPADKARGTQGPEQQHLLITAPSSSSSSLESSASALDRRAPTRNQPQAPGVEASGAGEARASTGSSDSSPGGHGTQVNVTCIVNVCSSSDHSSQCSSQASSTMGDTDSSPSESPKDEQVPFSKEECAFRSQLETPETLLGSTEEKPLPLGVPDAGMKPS
Procedure, shortened: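 Binding was measured by flow cytometry (Beckman CytoFLEX) on a CHO line stably overexpressing human TNFR2. Cells in 96-deep-well plates were exposed to serially diluted antibodies, washed and labelled with a fluorescent anti-IgG secondary antibody, and EC50 was determined across the dilutions.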

[4] = target: T1, TNFR2-His (Sino Biological, 10417-H08H, …); experiment: ELISA, plate coated with TNFR2-His
Procedure, shortened: as §1

[5] = target: T1, TNFR2-His (Sino Biological, 10417-H08H, …); experiment: BLI, antibody captured on AHC probe, TNFR2-His in solution
Procedure, shortened: as §2

[6] = target: T1, TNFR2-His (Sino Biological, 10417-H08H, …); experiment: ELISA, coated TNFR2-His
Procedure, shortened: as §1

B1: 12E12huVH3 + huVL4(P07290) (antibody, V domains shown)
VH: QVQLVQSGAEVKKPGASVKVSCKVSGFNIKDFYIHWVRQAPGKGLEWMGRVDPEDGNTEYAQKFQGRVTMTTDTSTDTAYMELSSLRSEDTAVYYCSTWDGFSYFDYWGQGTTVTVSS
VL: EAVVTQSPATLSLSPGERATLSCRSSTGPVTTNNYANWVQQKPGQAFRGLIGGTNDRAPGIPARFSGSGSGTDTTLTISSLQPEDFAVYYCALWYRNHWVFGGGTKLEIK
notes: Humanized 12E12
- EC50 [1]: 0.059 µg/mL and 0.395 nM
- Kd [2]: 5.03 nM
- koff [2]: 0.00407 s⁻¹
- kon [2]: 810000 M⁻¹ s⁻¹
- EC50 [3]: 0.0367 µg/mL and 0.246 nM

B3: 12E12huVH1+huVL4(P07288) (antibody, V domains shown)
VH: EVQLVQSGAEVKKPGASVKLSCTVSGFNIKDFYIHWVRQAPGQGLEWIGRVDPEDGNTEYAPNFQDRATMTTDTSTNTAYLELSSLRSEDTAVYYCSTWDGFSYFDYWGQGTTVTVSS
VL: EAVVTQSPATLSLSPGERATLSCRSSTGPVTTNNYANWVQQKPGQAFRGLIGGTNDRAPGIPARFSGSGSGTDTTLTISSLQPEDFAVYYCALWYRNHWVFGGGTKLEIK
- EC50 [1]: 0.0739 µg/mL and 0.495 nM

B5: 12E12huVH1+huVL1(P07277) (antibody, V domains shown)
VH: EVQLVQSGAEVKKPGASVKLSCTVSGFNIKDFYIHWVRQAPGQGLEWIGRVDPEDGNTEYAPNFQDRATMTTDTSTNTAYLELSSLRSEDTAVYYCSTWDGFSYFDYWGQGTTVTVSS
VL: QAVVTQEPSLTVSPGGTVTLTCRSSTGPVTTNNYANWVQQKPGQAFRGLIGGTNDRAPGVPARFSGSLIGDKTALTLSGVQPEDEAEYYCALWYRNHWVFGGGTKLTVL
- EC50 [1]: 0.0606 µg/mL and 0.406 nM

B6: 12E12huVH3 + huVL2(P07282) (antibody, V domains shown)
VH: QVQLVQSGAEVKKPGASVKVSCKVSGFNIKDFYIHWVRQAPGKGLEWMGRVDPEDGNTEYAQKFQGRVTMTTDTSTDTAYMELSSLRSEDTAVYYCSTWDGFSYFDYWGQGTTVTVSS
VL: QAVVTQEPSLTVSPGGTVTLTCRSSTGPVTTNNYANWVQQKPGQAFRGLIGGTNDRAPGVPARFSGSLLGGKAALTLSGAQPEDEAEYYCALWYRNHWVFGGGTKLTVL
notes: Humanized 12E12
- EC50 [1]: 0.045 µg/mL and 0.301 nM
- Kd [2]: 6.38 nM
- koff [2]: 0.00487 s⁻¹
- kon [2]: 764000 M⁻¹ s⁻¹
- EC50 [3]: 0.0203 µg/mL and 0.136 nM

B12: 11G2huVH1 + huVL3(P07271) (antibody, V domains shown)
VH: QVQLVQSGAEVKKPGASVKLSCKASGYTFITYDINWVRQAPGQGLEWIGWIYPRDGNTQFNENFKGKATMTVDESTSTAYMEVRSLRSDDTAVYYCARGDRDYGYFDVWGQGTTVTVSS
VL: DIQMTQSPSSLSASVGDRVTITCQASQDISNYLNWYQQKPGKAPKLLIYFKSKLETGVPSRFSGSGSGTDFTFTISSLQPEDIATYYCQQGNTLPLTFGGGTKLEIK
notes: Humanized 11G2
- EC50 [4]: 0.0715 µg/mL
- Kd [5]: 8.4 nM
- koff [5]: 0.00251 s⁻¹
- kon [5]: 299000 M⁻¹ s⁻¹
- EC50 [6]: 0.479 nM

B13: 11G2huVH2 + huVL3(P07272) (antibody, V domains shown)
VH: QVQLVQSGAEVKKPGASVKVSCKASGYTFITYDINWVRQAPGQGLEWIGWIYPRDGNTQFNENFKGRVTMTTDTSTSTAYMELRSLRSDDTAVYYCARGDRDYGYFDVWGQGTTVTVSS
VL: DIQMTQSPSSLSASVGDRVTITCQASQDISNYLNWYQQKPGKAPKLLIYFKSKLETGVPSRFSGSGSGTDFTFTISSLQPEDIATYYCQQGNTLPLTFGGGTKLEIK
notes: Humanized 11G2
- EC50 [4]: 0.0859 µg/mL
- Kd [5]: 10.6 nM
- koff [5]: 0.00293 s⁻¹
- kon [5]: 276000 M⁻¹ s⁻¹
- EC50 [6]: 0.576 nM

B14: 11G2huVH3 + huVL3(P07273) (antibody, V domains shown)
VH: QVQLVQSGAEVKKPGASVKVSCKASGYTFITYDINWVRQATGQGLEWIGWIYPRDGNTQFNENFQGRVTMTRNTSISTAYMELSSLRSEDTAVYYCARGDRDYGYFDVWGQGTTVTVSS
VL: DIQMTQSPSSLSASVGDRVTITCQASQDISNYLNWYQQKPGKAPKLLIYFKSKLETGVPSRFSGSGSGTDFTFTISSLQPEDIATYYCQQGNTLPLTFGGGTKLEIK
notes: Humanized 11G2
- EC50 [4]: 0.0778 µg/mL
- Kd [5]: 10.2 nM
- koff [5]: 0.00255 s⁻¹
- kon [5]: 249000 M⁻¹ s⁻¹
- EC50 [6]: 0.521 nM

Continued, values first:

- EC50 [1]: 0.0672 µg/mL and 0.45 nM
B2: 12E12huVH2+huVL4(P07289) (antibody, V domains shown)
VH: QVQLVQSGAEVKKPGASVKVSCKVSGFNIKDFYIHWVRQAPGQGLEWIGRVDPEDGNTEYAPNFQDRATMTTDTSTSTAYLELSSLRSEDTAVYYCSTWDGFSYFDYWGQGTTVTVSS
VL: EAVVTQSPATLSLSPGERATLSCRSSTGPVTTNNYANWVQQKPGQAFRGLIGGTNDRAPGIPARFSGSGSGTDTTLTISSLQPEDFAVYYCALWYRNHWVFGGGTKLEIK

- EC50 [1]: 0.0533 µg/mL and 0.357 nM
- Kd [2]: 3.14 nM
- koff [2]: 0.0034 s⁻¹
- kon [2]: 1.08e+06 M⁻¹ s⁻¹
- EC50 [3]: 0.0329 µg/mL and 0.221 nM
B4: 12E12huVH5 + huVL4(P07292) (antibody, V domains shown)
VH: EVQLVQSGAEVKKPGATVKISCKVSGFNIKDFYIHWVQQAPGKGLEWIGRVDPEDGNTEYAEKFQGRVTITADTSTDTAYMELSSLRSEDTAVYYCSTWDGFSYFDYWGQGTTVTVSS
VL: EAVVTQSPATLSLSPGERATLSCRSSTGPVTTNNYANWVQQKPGQAFRGLIGGTNDRAPGIPARFSGSGSGTDTTLTISSLQPEDFAVYYCALWYRNHWVFGGGTKLEIK
notes: Humanized 12E12

- EC50 [1]: 0.049 µg/mL and 0.328 nM
B7: 12E12huVH4+huVL2(P07284) (antibody, V domains shown)
VH: EVQLVQSGAEVKKPGATVKISCKVSGFNIKDFYIHWVQQAPGKGLEWIGRVDPEDGNTEYAPNFQDRVTITADTSTDTAYMELSSLRSEDTAVYYCSTWDGFSYFDYWGQGTTVTVSS
VL: QAVVTQEPSLTVSPGGTVTLTCRSSTGPVTTNNYANWVQQKPGQAFRGLIGGTNDRAPGVPARFSGSLLGGKAALTLSGAQPEDEAEYYCALWYRNHWVFGGGTKLTVL

- EC50 [1]: 0.0614 µg/mL and 0.411 nM
B8: 12E12huVH2+huVL1(P07278) (antibody, V domains shown)
VH: QVQLVQSGAEVKKPGASVKVSCKVSGFNIKDFYIHWVRQAPGQGLEWIGRVDPEDGNTEYAPNFQDRATMTTDTSTSTAYLELSSLRSEDTAVYYCSTWDGFSYFDYWGQGTTVTVSS
VL: QAVVTQEPSLTVSPGGTVTLTCRSSTGPVTTNNYANWVQQKPGQAFRGLIGGTNDRAPGVPARFSGSLIGDKTALTLSGVQPEDEAEYYCALWYRNHWVFGGGTKLTVL

- EC50 [1]: 0.0754 µg/mL and 0.505 nM
- Kd [2]: 1.71 nM
- koff [2]: 0.00197 s⁻¹
- kon [2]: 1.15e+06 M⁻¹ s⁻¹
- EC50 [3]: 0.149 µg/mL and 1 nM
B9: 12E12huVH5 + huVL2(P07286) (antibody, V domains shown)
VH: EVQLVQSGAEVKKPGATVKISCKVSGFNIKDFYIHWVQQAPGKGLEWIGRVDPEDGNTEYAEKFQGRVTITADTSTDTAYMELSSLRSEDTAVYYCSTWDGFSYFDYWGQGTTVTVSS
VL: QAVVTQEPSLTVSPGGTVTLTCRSSTGPVTTNNYANWVQQKPGQAFRGLIGGTNDRAPGVPARFSGSLLGGKAALTLSGAQPEDEAEYYCALWYRNHWVFGGGTKLTVL
notes: Humanized 12E12

- EC50 [1]: 0.0596 µg/mL and 0.399 nM
B10: 12E12huVH3+huVL1(P07281) (antibody, V domains shown)
VH: QVQLVQSGAEVKKPGASVKVSCKVSGFNIKDFYIHWVRQAPGKGLEWMGRVDPEDGNTEYAQKFQGRVTMTTDTSTDTAYMELSSLRSEDTAVYYCSTWDGFSYFDYWGQGTTVTVSS
VL: QAVVTQEPSLTVSPGGTVTLTCRSSTGPVTTNNYANWVQQKPGQAFRGLIGGTNDRAPGVPARFSGSLIGDKTALTLSGVQPEDEAEYYCALWYRNHWVFGGGTKLTVL

- EC50 [1]: 0.0687 µg/mL and 0.46 nM
B11: 12E12huVH2+huVL2(P07279) (antibody, V domains shown)
VH: QVQLVQSGAEVKKPGASVKVSCKVSGFNIKDFYIHWVRQAPGQGLEWIGRVDPEDGNTEYAPNFQDRATMTTDTSTSTAYLELSSLRSEDTAVYYCSTWDGFSYFDYWGQGTTVTVSS
VL: QAVVTQEPSLTVSPGGTVTLTCRSSTGPVTTNNYANWVQQKPGQAFRGLIGGTNDRAPGVPARFSGSLLGGKAALTLSGAQPEDEAEYYCALWYRNHWVFGGGTKLTVL
